The target of assay [1] is T1, HCoV-OC43 trimeric S protein (amino acids 12-1299) with T4 foldon, histidine tag and strep-tag (HCoV-OC43, UniProt P36334 12-1291).
T1 chain: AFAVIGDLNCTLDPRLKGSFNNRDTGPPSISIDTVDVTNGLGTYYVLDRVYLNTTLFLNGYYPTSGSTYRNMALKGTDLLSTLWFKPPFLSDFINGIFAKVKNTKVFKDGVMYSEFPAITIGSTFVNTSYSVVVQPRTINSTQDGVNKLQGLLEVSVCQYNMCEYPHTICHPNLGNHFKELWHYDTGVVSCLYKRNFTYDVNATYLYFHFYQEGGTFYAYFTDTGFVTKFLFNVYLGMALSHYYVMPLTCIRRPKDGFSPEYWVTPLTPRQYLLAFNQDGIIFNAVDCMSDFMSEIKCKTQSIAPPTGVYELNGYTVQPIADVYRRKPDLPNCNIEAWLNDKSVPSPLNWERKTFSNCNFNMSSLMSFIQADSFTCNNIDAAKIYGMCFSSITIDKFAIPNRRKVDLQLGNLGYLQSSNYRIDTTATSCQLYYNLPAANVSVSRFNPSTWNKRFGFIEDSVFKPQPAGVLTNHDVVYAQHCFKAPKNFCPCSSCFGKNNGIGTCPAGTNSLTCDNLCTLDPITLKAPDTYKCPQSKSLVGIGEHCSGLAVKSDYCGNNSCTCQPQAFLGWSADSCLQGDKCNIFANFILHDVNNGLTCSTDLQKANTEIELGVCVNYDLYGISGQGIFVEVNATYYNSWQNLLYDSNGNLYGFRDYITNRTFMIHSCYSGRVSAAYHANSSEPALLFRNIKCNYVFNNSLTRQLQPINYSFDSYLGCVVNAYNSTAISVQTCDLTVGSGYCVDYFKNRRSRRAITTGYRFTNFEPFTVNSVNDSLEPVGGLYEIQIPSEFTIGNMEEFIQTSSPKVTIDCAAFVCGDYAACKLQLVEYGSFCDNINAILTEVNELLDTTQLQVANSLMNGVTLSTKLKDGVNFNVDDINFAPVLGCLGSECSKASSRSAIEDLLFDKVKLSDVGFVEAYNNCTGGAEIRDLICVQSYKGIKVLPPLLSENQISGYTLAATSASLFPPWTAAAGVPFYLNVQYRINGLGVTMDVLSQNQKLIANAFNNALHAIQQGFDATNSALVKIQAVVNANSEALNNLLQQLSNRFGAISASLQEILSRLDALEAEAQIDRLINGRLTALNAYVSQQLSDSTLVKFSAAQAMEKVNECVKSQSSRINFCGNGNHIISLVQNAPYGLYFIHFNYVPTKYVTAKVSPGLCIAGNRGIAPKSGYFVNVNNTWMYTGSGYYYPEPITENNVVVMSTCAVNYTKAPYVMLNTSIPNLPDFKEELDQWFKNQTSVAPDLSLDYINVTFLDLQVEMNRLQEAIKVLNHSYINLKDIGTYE
Briefly: ELISA on coated S-trimeric antigen, anti-human IgG-HRP [Human IgG3, NT-193]. A general note: ELISA stands for enzyme-linked immunosorbent assay.

Assay [2] deals with T2, HCoV-HKU1 trimeric S protein (amino acids 13-1293) with T4 foldon, histidine tag and strep-tag (HCoV-HKU1, UniProt Q5MQD0 13-1297).
T2 sequence: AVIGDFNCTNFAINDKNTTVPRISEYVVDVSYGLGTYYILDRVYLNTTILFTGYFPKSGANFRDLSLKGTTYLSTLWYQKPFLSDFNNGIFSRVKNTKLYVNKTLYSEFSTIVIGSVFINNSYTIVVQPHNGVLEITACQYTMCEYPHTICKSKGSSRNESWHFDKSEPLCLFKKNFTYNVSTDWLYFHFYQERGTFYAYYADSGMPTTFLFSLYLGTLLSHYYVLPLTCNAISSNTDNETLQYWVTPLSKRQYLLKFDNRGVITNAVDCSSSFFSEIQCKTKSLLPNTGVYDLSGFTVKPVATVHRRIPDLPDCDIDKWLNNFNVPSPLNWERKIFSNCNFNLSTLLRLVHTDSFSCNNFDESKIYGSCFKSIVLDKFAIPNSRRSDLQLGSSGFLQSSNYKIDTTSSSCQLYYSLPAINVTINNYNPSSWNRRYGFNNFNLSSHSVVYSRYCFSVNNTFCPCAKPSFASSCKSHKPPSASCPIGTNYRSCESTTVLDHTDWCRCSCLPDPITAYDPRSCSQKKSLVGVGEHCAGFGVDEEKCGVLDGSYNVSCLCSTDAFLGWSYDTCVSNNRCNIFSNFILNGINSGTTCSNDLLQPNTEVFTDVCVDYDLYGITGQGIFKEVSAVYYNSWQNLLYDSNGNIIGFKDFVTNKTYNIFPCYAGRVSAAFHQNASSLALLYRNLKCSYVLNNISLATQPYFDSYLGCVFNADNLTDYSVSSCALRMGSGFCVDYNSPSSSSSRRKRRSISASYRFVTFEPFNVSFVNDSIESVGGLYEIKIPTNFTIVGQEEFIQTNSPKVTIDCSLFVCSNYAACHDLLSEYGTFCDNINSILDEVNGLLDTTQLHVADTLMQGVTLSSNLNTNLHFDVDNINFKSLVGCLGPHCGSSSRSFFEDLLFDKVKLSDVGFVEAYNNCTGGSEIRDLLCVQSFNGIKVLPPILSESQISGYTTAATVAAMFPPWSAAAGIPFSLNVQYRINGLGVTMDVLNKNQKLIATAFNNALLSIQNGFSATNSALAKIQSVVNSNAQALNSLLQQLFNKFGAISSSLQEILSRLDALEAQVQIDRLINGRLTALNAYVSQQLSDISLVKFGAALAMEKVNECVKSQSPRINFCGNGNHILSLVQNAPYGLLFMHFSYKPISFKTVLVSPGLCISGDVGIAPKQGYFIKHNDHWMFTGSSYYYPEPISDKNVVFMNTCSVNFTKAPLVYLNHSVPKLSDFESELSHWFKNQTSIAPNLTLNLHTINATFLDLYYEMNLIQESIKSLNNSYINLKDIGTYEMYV
The assay is described as above.

B1: NT-193, human IgG3 subclass (antibody, V domains shown)
VH: EVQLQQWGAGLLKPSETLSLTCAVYGGSFSGYYWSWIRQPPGKGLEWIGEINHSGSTNYNPSLKSRVTISVDTSKNQFSLKLSSVTAADTAVYYCARGWDLDYYYGMDVWGQGTTVTVSS
VL: DIRMTQSPSAMSASVGDRVTVTCRASQGIGNYLAWFQLKPGKVPKRLIYAASSLQSGVPARFSGGGSGTEFTLTISSLQPEDFATYYCLQHGFLPWTFGQGTKLEIK
As for B1, the binding result in assay [1] and in assay [2] was “no binding (tested: 1000 ng/ml)” throughout.

The record behind these values is patent US20240287161A1 (NATIONAL UNIVERSITY CORPORATION TOTTORI UNIVERSITY, published 2024).
